How the values were obtained:
[1] = biological target: human FcRn beta-2-microglobulin complex, biotinylated, coupled to streptavidin Sepharose (human) (UniProt P55899); assay: FcRn affinity chromatography, pH gradient 5.5 to 8.8; unlabelled antibody
[2] = biological target: human FcRn beta-2-microglobulin complex, biotinylated, coupled to streptavidin Sepharose (human) (UniProt P55899); assay: FcRn affinity chromatography, pH gradient 5.5 to 8.8; dye-labelled antibody

Chain of Ixekizumab, labelled with pHAb dye (antibody) (HC): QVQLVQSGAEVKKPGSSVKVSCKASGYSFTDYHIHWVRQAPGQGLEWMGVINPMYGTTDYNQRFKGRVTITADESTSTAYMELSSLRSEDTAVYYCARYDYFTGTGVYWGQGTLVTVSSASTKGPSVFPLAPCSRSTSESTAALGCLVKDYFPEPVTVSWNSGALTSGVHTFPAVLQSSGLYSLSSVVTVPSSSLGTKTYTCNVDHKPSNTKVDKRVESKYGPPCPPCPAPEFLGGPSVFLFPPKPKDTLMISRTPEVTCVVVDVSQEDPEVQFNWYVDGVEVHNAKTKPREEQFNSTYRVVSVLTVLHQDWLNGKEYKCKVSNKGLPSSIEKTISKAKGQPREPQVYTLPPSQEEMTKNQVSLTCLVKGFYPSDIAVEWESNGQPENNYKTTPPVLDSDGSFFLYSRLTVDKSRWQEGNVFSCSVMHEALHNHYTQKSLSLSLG
Chain of Ixekizumab, labelled with pHAb dye (antibody) (LC): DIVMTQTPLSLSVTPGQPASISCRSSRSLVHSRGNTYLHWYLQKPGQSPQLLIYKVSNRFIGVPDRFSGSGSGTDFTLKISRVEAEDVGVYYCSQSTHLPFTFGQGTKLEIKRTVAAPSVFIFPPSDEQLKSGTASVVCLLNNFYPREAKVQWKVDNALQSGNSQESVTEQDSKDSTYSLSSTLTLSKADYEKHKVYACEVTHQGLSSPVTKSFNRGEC
Chain of Avelumab, labelled with pHAb dye (antibody) (HC): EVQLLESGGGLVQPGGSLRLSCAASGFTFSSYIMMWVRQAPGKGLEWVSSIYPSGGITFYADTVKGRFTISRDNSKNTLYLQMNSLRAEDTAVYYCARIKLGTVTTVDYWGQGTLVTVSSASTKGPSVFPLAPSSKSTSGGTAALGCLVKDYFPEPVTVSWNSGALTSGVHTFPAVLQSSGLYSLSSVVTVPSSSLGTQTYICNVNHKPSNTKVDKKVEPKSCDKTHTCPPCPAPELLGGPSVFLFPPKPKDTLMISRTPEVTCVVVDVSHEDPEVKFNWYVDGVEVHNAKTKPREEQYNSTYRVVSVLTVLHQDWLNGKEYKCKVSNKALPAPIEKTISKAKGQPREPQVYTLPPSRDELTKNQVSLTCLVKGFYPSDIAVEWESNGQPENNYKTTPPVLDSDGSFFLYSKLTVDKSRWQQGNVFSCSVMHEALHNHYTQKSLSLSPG
Chain of Avelumab, labelled with pHAb dye (antibody) (LC): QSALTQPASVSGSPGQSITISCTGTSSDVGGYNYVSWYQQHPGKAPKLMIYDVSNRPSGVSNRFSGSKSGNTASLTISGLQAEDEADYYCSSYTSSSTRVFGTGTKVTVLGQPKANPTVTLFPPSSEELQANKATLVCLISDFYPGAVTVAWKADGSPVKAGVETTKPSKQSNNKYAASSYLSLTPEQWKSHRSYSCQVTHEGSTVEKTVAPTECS
Chain of Ustekinumab, labelled with pHAb dye (antibody) (HC): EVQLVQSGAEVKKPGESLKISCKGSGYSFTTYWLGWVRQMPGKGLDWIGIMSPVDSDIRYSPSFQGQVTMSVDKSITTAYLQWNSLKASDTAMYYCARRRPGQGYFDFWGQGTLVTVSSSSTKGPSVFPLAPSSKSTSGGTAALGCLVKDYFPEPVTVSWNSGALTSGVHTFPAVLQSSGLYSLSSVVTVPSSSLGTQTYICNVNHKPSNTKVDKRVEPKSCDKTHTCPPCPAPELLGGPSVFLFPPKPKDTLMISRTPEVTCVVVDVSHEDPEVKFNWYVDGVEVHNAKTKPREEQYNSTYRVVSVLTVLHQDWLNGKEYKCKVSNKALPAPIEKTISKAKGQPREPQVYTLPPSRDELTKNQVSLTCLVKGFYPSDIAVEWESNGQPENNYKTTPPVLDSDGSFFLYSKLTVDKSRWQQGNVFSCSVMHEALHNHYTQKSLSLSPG
Chain of Ustekinumab, labelled with pHAb dye (antibody) (LC): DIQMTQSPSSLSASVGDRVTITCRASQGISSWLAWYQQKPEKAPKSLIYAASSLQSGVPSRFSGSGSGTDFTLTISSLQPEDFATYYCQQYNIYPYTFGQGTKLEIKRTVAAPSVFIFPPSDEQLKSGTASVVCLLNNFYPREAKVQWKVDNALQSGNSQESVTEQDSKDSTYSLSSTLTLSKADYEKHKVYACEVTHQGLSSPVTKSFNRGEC

Substance | relative retention time on FcRn affinity column (relative to anti-Her3 antibody standard) [1] | relative retention time on FcRn affinity column (relative to anti-Her3 antibody standard) [2]
Avelumab, labelled with pHAb dye (antibody) |  | 1.25
Ixekizumab, labelled with pHAb dye (antibody) |  | 1.33
Motavizumab WT (antibody) | 0.5 | 
Motavizumab WT, labelled with pHAb dye (antibody) |  | 0.42
Motavizumab-YTE (antibody) | 4.52 | 
Nivolumab (antibody) | 0.49 | 
Nivolumab, labelled with pHAb dye (antibody) |  | 0.39
Ofatumumab (antibody) | 0.72 | 
Ofatumumab, labelled with pHAb dye (antibody) |  | 0.67
Ustekinumab, labelled with pHAb dye (antibody) |  | 0.41

Second part, the substance after the results:

relative retention time on FcRn affinity column (relative to anti-Her3 antibody standard) [1] | relative retention time on FcRn affinity column (relative to anti-Her3 antibody standard) [2] | Substance
0.93 |  | Adalimumab (antibody)
 | 0.84 | Adalimumab, labelled with pHAb dye (antibody)
1.27 |  | Avelumab (antibody)
 | 4.88 | Motavizumab-YTE, labelled with pHAb dye (antibody)
0.31 |  | Palivizumab (antibody)
 | 0.28 | Palivizumab, labelled with pHAb dye (antibody)
0.5 |  | Reslizumab (antibody)
 | 0.41 | Reslizumab, labelled with pHAb dye (antibody)
0.48 |  | Ustekinumab (antibody)

From patent US20230194547A1
